What all share (assay type): cell-based
One test has as its target T1, GPR135 (RXFP3) (Homo sapiens, UniProt Q9NSD7).
T1 construct: host or cells: CHO-K1 recombinant cell line (Euroscreen)
T1 sequence (Q9NSD7 1-469): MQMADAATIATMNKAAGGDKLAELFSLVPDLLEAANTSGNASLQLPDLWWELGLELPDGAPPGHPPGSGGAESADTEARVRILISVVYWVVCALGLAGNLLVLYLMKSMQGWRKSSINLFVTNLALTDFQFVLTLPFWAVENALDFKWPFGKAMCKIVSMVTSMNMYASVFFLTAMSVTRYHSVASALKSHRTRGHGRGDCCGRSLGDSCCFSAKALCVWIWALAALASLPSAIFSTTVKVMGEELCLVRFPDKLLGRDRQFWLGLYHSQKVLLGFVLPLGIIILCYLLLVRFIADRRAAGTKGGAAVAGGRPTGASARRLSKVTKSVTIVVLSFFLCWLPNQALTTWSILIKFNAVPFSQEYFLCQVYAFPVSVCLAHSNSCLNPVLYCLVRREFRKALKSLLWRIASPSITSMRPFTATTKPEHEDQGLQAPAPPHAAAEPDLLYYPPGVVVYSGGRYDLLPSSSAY
The test is described as follows: cAMP HTRF assay on Euroscreen RXFP3 recombinant cells. As to conditions: increasing concentrations, 30 min; FIG. 5. On the procedure:
The ability of P59C13V (SEQ ID NO: 6) and H3 Relaxin to activate CHO-K1 cells transfected by GPR135 (RXFP3), which is a non-LGR, Relaxin related receptor, was tested. The assay was performed by Euroscreen. For cAMP concentration analysis, Euroscreen cat. ES-656-A-cells (RXFP3, Euroscreen cat. ES-656-A) grown to mid-log phase in culture media without antibiotics were detached with PBS-EDTA, centrifuged and resuspended in assay buffer at a concentration of […]. The test was performed in 96 well plates. For agonist testing, 12 μl of cells (5×10^3 cells/well) were mixed with 12 μl of agonist Either H3-Relaxin or P59C13V (P59) (SEQ ID NO: 6) at increasing concentrations. The plates were then incubated for 30 min at room temperature. After addition of the lysis buffer, cAMP concentrations were estimated, according to the manufacturer specification, with the HTRF kit from Cis-Bio International (cat no 62AM2PEB).
.Relaxin 3 Fit (Eeuroscreen) was used as a positive control. RXFP3 (GPCR135) transfected cells were challenged with increasing concentrations of Relaxin 3 (H3 Relaxin—as a positive control—[…]) or P59C13V (P59) (SEQ ID NO: 6) (1 nM-3 uM).
For orientation: TR-FRET usually uses a lanthanide donor and a delayed reading to cut background.

Test [1] concerns the target T2, LGR8 (RXFP2) (Homo sapiens, UniProt Q8WXD0). Description: cAMP accumulation (Hit Hunter cAMP kit) in CHO-K1 cells transiently transfected with LGR8. Also noted: expressed in transfected cells; host or cells: CHO-K1 (transient). The conditions noted are these: 20 uM Forskolin, FIG. 2. On the procedure:
The ability of Peptides to affect cAMP concentration was examined in CHO-K1 cells transiently transfected with LGR7 (RXFP1) or LGR8 (RXFP2). The experiment measured cAMP concentration in response to the addition of the peptides.
LGR7 (RXFP1) or LGR8 (RXFP2) were transiently transfected into CHO-K1 cells as follows: Cells (12 million) were plated into T75 flasks on the day preceding transfection. Cells were transfected with a GPCR DNA and Gα16 using a lipid technique according to the manufacturer's recommendation. Cells were transfected for 5 hours, then re-plated into 96-well dishes (60,000 cells per well) and grown overnight. Transfected cells were plated into 24 wells of a 96-well plate. Cells were pre-treated with 0.5 mM IBMX (stimulation buffer) for 10 min at 37° C., then stimulated with either a positive control (Relaxin 2) or a candidate peptide (for Gs functional examination), followed by stimulation or a preincubation with 10 μM forskolin (for Gi functional examination). Following a 20 minutes stimulation by incubation with 1 μM of either positive control or the tested peptides, either with or without forskolin, intracellular cAMP was assayed using the Hit Hunter cAMP kit (DiscoveRx Corporation) according to the manufacturer's recommended protocol. Data was converted to nmol of cAMP by running a standard cAMP curve.
Relaxin was used as a positive control. cAMP level was elevated by pre-treatment with forskolin.
The transfected CHO-K1 cells were treated with 10 uM of Forskolin (Applied cell sciences (ACS)) for 10 minutes and then challenged with 1 uM of H2 Relaxin (ACS) (as a positive control), 1 uM of Peptide P59C13V (P59) (SEQ ID NO: 6), and Peptide P74C13V (P74) (SEQ ID NO: 10).
A dose response effect of P59C13V (P59) and P74C13V (P74) on CHO-K1 cells transiently transfected with LGR8 (RXFP2) was further examined (Method as above). CHO-K1 cells transiently transfected with LGR8 (RXFP2) were treated with 20 uM of Forskolin for 10 minutes and then challenged with either INSL3 (as a positive control), P59C13V (SEQ ID NO: 6) or P74C13V (P74) (SEQ ID NO: 10) at increasing concentrations from 1 nM to 10 uM.

Test [2] has as its target T2, LGR8 (RXFP2). The test is described as follows: pCRE-β-gal reporter assay in Forskolin-treated CHO-K1 cells transiently transfected with LGR8. Also noted: expressed in transfected cells; host or cells: CHO-K1 (transient). The conditions noted are these: 5 uM Forskolin, FIG. 8A-B. As to the method: The ability of P74C13V (P74) (SEQ ID NO: 10) and P59C13V (P59) and P59C13V-Amide (P59-Amide) (SEQ ID NO: 6 and 5 respectively) to activate LGR7 (RXFP1) and LGR8 (RXFP2) was further tested by testing the ability of these peptides to influence cAMP activity induced by 5 μM Forskolin in CHO-K1 cells transiently transfected with LGR7/pCRE-β-gal or LGR8/pCRE-β-gal as compared to H2 relaxin and INSL3 respectively.
LGR8 transfected CHO-K1 cells were treated with 5 uM of Forskolin to stimulate cAMP. The cells were then challenged with increasing doses of INSL3 (as positive control), P74C13V (P74) (SEQ ID NO: 10), P59C13V with (P59-Amide) and without (P59) amide (SEQ ID NO: 5 and 6, respectively) and P59S-Amide (P59-S) (SEQ ID NO: 1). […] The results are presented as a percentage of Forskolin activity at various concentrations of the peptide (logarithmic scale). Each point represents three unrelated repeats for each experiment.
Background: Reporter assays use an easily measured gene product as a stand-in for the process of interest.

T2 sequence (Q8WXD0 whole entry): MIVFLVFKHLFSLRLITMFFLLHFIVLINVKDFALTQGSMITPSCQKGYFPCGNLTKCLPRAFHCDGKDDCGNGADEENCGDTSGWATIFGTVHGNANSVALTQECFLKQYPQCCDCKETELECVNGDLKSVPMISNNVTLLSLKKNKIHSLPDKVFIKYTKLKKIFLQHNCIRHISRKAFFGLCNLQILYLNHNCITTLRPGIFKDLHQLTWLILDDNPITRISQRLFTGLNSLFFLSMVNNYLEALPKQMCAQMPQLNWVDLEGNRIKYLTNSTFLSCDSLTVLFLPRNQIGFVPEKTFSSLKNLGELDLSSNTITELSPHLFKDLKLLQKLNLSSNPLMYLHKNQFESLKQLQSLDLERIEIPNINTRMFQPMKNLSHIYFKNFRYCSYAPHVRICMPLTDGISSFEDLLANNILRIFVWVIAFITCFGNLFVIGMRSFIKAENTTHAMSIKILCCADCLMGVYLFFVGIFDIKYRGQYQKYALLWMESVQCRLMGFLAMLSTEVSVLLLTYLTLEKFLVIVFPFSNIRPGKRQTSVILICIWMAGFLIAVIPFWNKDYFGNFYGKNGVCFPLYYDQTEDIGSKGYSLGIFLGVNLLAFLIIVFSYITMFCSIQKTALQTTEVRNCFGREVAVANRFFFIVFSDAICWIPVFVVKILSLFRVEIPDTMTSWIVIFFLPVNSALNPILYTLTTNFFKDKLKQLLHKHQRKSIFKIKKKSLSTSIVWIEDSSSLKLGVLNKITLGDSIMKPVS

With “H3 Relaxin: Relaxin 3 (Euroscreen), ligand of RXFP3, positive control [reference compound]”, the “cAMP activation (Gs) of RXFP3” value in the test with GPR135 (RXFP3) is given as “strong cAMP stimulation”.
For the substance “INSL3: Leydig insulin-like 3 peptide, high affinity ligand of LGR8, positive control (chain 1 AAATNPARYCCLSGCTQQDLLTLCPY; chain 2 PTPEMREKLCGHHFVRALVRVCGGPRWSTEA) [reference compound]”, in the test with LGR8 (RXFP2) [1] (concentrations higher than 100 nM (up to 10 uM)), the “change in cAMP, dose response, higher concentrations” value is on record as “sharp decrease (Gi effect)”. Moreover, the “change in cAMP, dose response, lower concentrations” value with LGR8 (RXFP2) [1] (concentrations lower than 100 nM) is “slight dose dependent increase”. The “CRE activation pattern relative to Forskolin” value in the test with LGR8 (RXFP2) [2] is given as “increased activation at higher concentrations”.

The values above are taken from patent publication US8492329B2, “Bioactive peptides and methods of using same” (Compugen Ltd., priority 2007, dated 2013).
